Measured values: PMC9889962

target: recombinant human FcγRI receptor (CD64) (UniProt P12314); assay: SPR; details: immobilized human FcγRI (CD64); parent: est. 100; read off a plot
Sequence (P12314 16-374): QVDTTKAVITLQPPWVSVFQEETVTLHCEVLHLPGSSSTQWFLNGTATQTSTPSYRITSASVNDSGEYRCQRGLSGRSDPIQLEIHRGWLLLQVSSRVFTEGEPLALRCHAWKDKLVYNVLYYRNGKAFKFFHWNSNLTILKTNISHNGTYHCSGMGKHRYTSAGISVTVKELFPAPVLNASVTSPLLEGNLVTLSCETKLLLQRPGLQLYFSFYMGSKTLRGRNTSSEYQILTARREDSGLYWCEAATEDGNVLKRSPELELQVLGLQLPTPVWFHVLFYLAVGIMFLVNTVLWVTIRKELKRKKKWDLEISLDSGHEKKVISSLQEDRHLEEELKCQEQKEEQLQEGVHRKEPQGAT

Substance	percent of parent
IgG1 (control) Agly	24%
IgG1 (control) DAPA	34%
IgG1 (control) FES	21%
IgG1 (control) FQQ	32%
IgG1 (control) LAGA	8.5%
IgG1 (control) LALA	27%
IgG1 (control) LALAKA	26%
IgG1 (control) LALE	8%
IgG1 (control) LGGR	6%
IgG1 (control) Sigma	3.5%
